# Laboratory results from the supplement of paper PMC9170038.
# System: MS2 coat protein
# Assay: apparent KD of MS2 coat protein; designed switch direction (-1 OFF switch, 1 ON switch): -1; higher = weaker reporter binding
# Procedure, shortened: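 Transcription of designed RNA switches on Illumina chips was done by stalled E. coli RNA polymerase. SNAP-549-labelled MS2 coat protein was then titrated in doubling steps from 0.7 or 1.5 nM to 3 µM, with steps of 0.8–1.5 h at the lowest and 10–20 min at the highest concentration. The per-design median over clusters of curve-fitted normalised fluorescence is reported as apparent KD.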
# [1] = Eterna round: R95, input ligand: FMN 200 uM
# [2] = Eterna round: R95, input ligand: microRNA oligo, concentration not stated
# [3] = Eterna round: R95, input ligand: none
# [4] = input ligand: microRNA oligo, concentration not stated
Sequence,apparent KD of MS2 coat protein [1],apparent KD of MS2 coat protein [2],apparent KD of MS2 coat protein [3],apparent KD of MS2 coat protein (input ligand: FMN 200 uM),apparent KD of MS2 coat protein (input ligand: none),apparent KD of MS2 coat protein [4]
AAAAAACAAGGAUAUACAAAAAAAAAAAGUGAAAAAAAACCACAUGAGGAUCACCCAUGUAGAAGGUGUAAAAA [JR_Exclusion2_Sub002] (puzzle: Exclusion 2),21.9 nM,37.1 nM,51.1 nM,–,–,–
AAAACACAUGAGGAUCACCCAUGUGAGGAUAUGUUCAUGUUCAGCAAACUGAACAUGAACAGAAGGCACAUAAA [JR_Exclusion1_Sub016] (puzzle: Exclusion 1),44.7 nM,36.5 nM,40.4 nM,–,–,–
AAAACACAUGAGGAUCACCCAUGUGAGGAUAUGUUGAUUUUGAUCAAAGUUAAGAUUAACAGAAGGCACAUAAA [JR_Exclusion1_Sub018] (puzzle: Exclusion 1),34.5 nM,36.1 nM,35.2 nM,–,–,–
AAAACGGCAGGAUAUCGGAACAAUGACAUGAGGAUCACCCAUGUGAUCGUUUCACUUGGCCGAGAAGGGCCAAAAU [Xeinbelele] (puzzle: Exclusion 5),54.6 nM,18.6 nM,17.4 nM,–,–,–
"AAAACGUGAGGAUAUCCAAUAUAUGACAUGAGGAUCACCCAUGUUUCCACUCGUACCUCCGGAGAAGGCACAAUUA [Ex5 #77] (Eterna round: R97, puzzle: Exclusion 5)",–,–,–,46.4 nM,43 nM,–
"AAAAGAACGGCAGGAUAUGCAAGCACUGACCUCCCAAAAUAAAGAAACAUGAGGAUCACCCAUGUGCAGAAGGGCCAAAAGUGC [Vediusin] (Eterna round: R96, puzzle: Exclusion NG 2)",–,–,–,–,–,10.4 nM
"AAAAGCAAGCAAAGAUUCUACAUGAGGAUCACCCAUGUGCUCGUCUUAUAAAGUACUAUCACGAAAGUGAUAGUACA [Sensor 3, v1 - 42] (puzzle: Sensor v3, turn-off variant 1)",26 nM,142 nM,19.7 nM,–,–,–
"AAAAUAAACCUCAUUUAAAACAUGAGGAUCACCCAUGUAAAAUGCUCGUCUUAUUAAAUGUACUCCUAGUUCGUACA [My solution] (Eterna round: R97, puzzle: Sensor, turn-off variant 1)",–,–,–,178 nM,251 nM,–
AAAAUGCAAGGAUAUACAUAGAUCCGACCUACUUAAAACAAACAUGAGGAUCACCCAUGUAGAAGGUGCCAAAA [Raxerebiti] (puzzle: Exclusion 2),44.9 nM,23.7 nM,25.5 nM,–,–,–
AAACAACAUGAGGAUCACCCAUGUAAGGAUAUGCGAGUUGGGUCAACGAAGGUUGAAGGCAGAAGGUAUAGGGU [Erxevees] (puzzle: Exclusion 1),–,49.3 nM,–,–,–,–
AAACAAGAAGGAUAUACAUUAUCGGAUCUUCCGGCAAUGCCACAUGAGGAUCACCCAUGUAGAAGGUCUAAAUU [Ralabi] (puzzle: Exclusion 2),–,12.3 nM,–,–,–,–
"AAACACACAGGAUAUGAGAGGCGGUACAUGAGGAUCACCCAUGUCCUCGGAAAUCAGCGUUCAGAAGGGUGCGGUG [Eternabot (Original) Solution 36] (Eterna round: R97, puzzle: Exclusion 5)",–,–,–,457 nM,171 nM,–
"AAACACUGAGGAUAUGCGUAACAACAAAGCCUCACGUGCCAACAUGAGGAUCACCCAUGUAGAAGGCAGUCCAA [Mod R3 Insanara 17 - Jieux - Exclusion 2] (Eterna round: R97, puzzle: Exclusion 2)",–,–,–,25.2 nM,25.1 nM,–
AAACCACAUGAGGAUCACCCAUGUGAGGAUAUGAUACUAUGUACUUCGGUACAUAGUAUCAGAAGGCAUGUGGA [Ex1-3: 88] (puzzle: Exclusion 1),–,168 nM,–,–,–,–
AAACCCUGAGGAUAUACAUAACAACAAAGCCUCACGUGCCAACAUGAGGAUCACCCAUGUAGAAGGCAGGCCAA [Isananra] (puzzle: Exclusion 2),–,12.6 nM,–,–,–,–
"AAACGGCGGACCGUGGCUUUUUGCUCGUCUUGUGCUUCGACAUGAGGAUCACCCAUGUGGUGGUGGUCCGUUGUAAA [Grok-var2-15 mod JAL] (puzzle: Sensor v3, turn-off variant 2)",48.3 nM,40.3 nM,80.3 nM,–,–,–
"AAACGGCGGAUCGUGGCUUUUUGCUCGUCUUGUGCUUCGACAUGAGGAUCACCCAUGUGGUGGUGAUCCGUUGUAAA [Grok-var2-16 mod JAL] (Eterna round: R96, puzzle: Sensor v3, turn-off variant 2)",–,–,–,537 nM,84 nM,12.4 nM
"AAACGGCGGAUCGUGGCUUUUUGCUCGUCUUGUGCUUCGACAUGAGGAUCACCCAUGUGGUGGUGAUCCGUUGUAAA [Grok-var2-16 mod JAL] (puzzle: Sensor v3, turn-off variant 2)",58.6 nM,15.8 nM,83.5 nM,–,–,–

Sequence,apparent KD of MS2 coat protein [1],apparent KD of MS2 coat protein [2],apparent KD of MS2 coat protein [3],apparent KD of MS2 coat protein (input ligand: FMN 200 uM),apparent KD of MS2 coat protein (input ligand: none),apparent KD of MS2 coat protein [4]
"AAACUGAGGCAAAGCUUUAGUCGUACAUGAGGAUCACCCAUGUAGGAUAUGGUAGGCUUUGCUUACCAGAAGGACAGAGUGAUC [Mat - Exclusion NG 3 - Mod of JL - D56] (Eterna round: R96, puzzle: Exclusion NG 3)",–,–,–,235 nM,110 nM,103 nM
AAACUGCAUGUGAGGAUAUGCACCGGCUAAACCGGGCAGAAGGCACAUGAGGAUCACCCAUGUCAUCCUAUUGC [Esleisus] (puzzle: Brourd's mod of Exclusion 4),–,9.01 nM,–,–,–,–
"AAAGAAGAGAGAAAACAACACAUGAGGAUCACCCAUGUGAGAAGAUGAGGGUGAUACAGGCUAUAUGCUCGUCUUAU (puzzle: Sensor v3, turn-off variant 1)",55 nM,281 nM,52.4 nM,–,–,–
"AAAGCUGCAGGAUAUGCAUGUGUGGACAUGAGGAUCACCCAUGUGAGCGUAUCAUGUCGAGCAGAAGGGCAGUAAA [Atquer] (Eterna round: R97, puzzle: Exclusion 5)",–,–,–,172 nM,630 nM,–
"AAAGUAGACCUUGAAGCAUCGUAAACAUGAGGAUCACCCAUGUAGGAUAUGGGUAGCUAUGCUAGCCAGAAGGAUGUGUGGUGA [Eternabot solution 16] (Eterna round: R96, puzzle: Exclusion NG 3)",–,–,–,335 nM,54.4 nM,39 nM
"AAAUAACAAGCAAUAAACCACAUGAGGAUCACCCAUGUAAAGGGUGAAUCGUCCACCCAAAAAAAAAAAAAAAAAUA [Mat - Sensor v2 - Eli mod - 147] (Eterna round: R96, puzzle: Sensor v2, turn-off variant)",–,–,–,43.3 nM,52.3 nM,178 nM
"AAAUAAUAGAUAAAAUAAAACAUGAGGAUCACCCAUGUGGGAAGAUGAGGGUGAAACAAGCUUUUUGCUCGUCUUAU (puzzle: Sensor v3, turn-off variant 1)",37.8 nM,754 nM,46.7 nM,–,–,–
"AAAUAAUAGAUAAAAUAAAACAUGAGGAUCACCCAUGUGGGAUGUUGAGGGUGAAACAAGCUUUUUGCUCGUCUUAU (puzzle: Sensor v3, turn-off variant 1)",105 nM,502 nM,139 nM,–,–,–
"AAAUACAAGUAAGGAUUCUACAUGAGGAUCACCCAUGUGCUCGUCUUAUAAAGUACUAUCACGAAAGUGAUAGUACA [Sensor 3, v1 - 38] (puzzle: Sensor v3, turn-off variant 1)",22 nM,190 nM,26.2 nM,–,–,–
"AAAUACCGGUGAGGAUAUUUAUAAUAGAACUUUAUGAUAUACAUGAGGAUCACCCAUGUUACUUUAAAGAAGGCAUCGGAUAAA [Mat - Exclusion NG 2 - Mod of JL - D89] (Eterna round: R96, puzzle: Exclusion NG 2)",–,–,–,–,–,13.9 nM
"AAAUAGCAUGAGGAUAUUGGACUGGAUUCAGUGCGAGAAGGCAUGACAUGAGGAUCACCCAUGUUGUGUUGGGA [EX6 #9] (Eterna round: R97, puzzle: Exclusion 6)",–,–,–,42.6 nM,17 nM,–
"AAAUAGCUAGAGGAUAUCGGAUAGGAUUUAUUACGAGAAGGUUAGACAUGAGGAUCACCCAUGUUCUGUUGGGA [EX6 #21] (Eterna round: R97, puzzle: Exclusion 6)",–,–,–,86.9 nM,34.6 nM,–
"AAAUAGUGAGGAUAUUAGUUGUACGUCAAUAGACGUAUAAGUGAGAAGGCACAUGAGGAUCACCCAUGUUCCAG [Omei Ex4 Mod of Mat's R95 mod of Omei v9] (Eterna round: R97, puzzle: Exclusion 4)",–,–,–,48.4 nM,22.2 nM,–
AAAUCCGCUGAGGAUAUUAUCAGUGAGAGCUGAUGAGAAGGCGGUACAUGAGGAUCACCCAUGUCUAUGGGCAA [Ex-6 Malc#25] (puzzle: Exclusion 6),358 nM,208 nM,295 nM,–,–,–
"AAAUCGGAGGAGGAUAUCGUACAGGAAACGGUGCGAGAAGGUUUCACAUGAGGAUCACCCAUGUCAAAUAGCGA [EX6 #58] (Eterna round: R97, puzzle: Exclusion 6)",–,–,–,21 nM,16.4 nM,–
"AAAUGCAAGUAAAGAUCUUACAUGAGGAUCACCCAUGUGCUCGUCUUAUAAAGUACUAUCACGAAAGUGAUAGUACA [Sensor 3, v1 - 27] (puzzle: Sensor v3, turn-off variant 1)",18.5 nM,76.9 nM,19.3 nM,–,–,–
"AAAUUAGCAAGUAGGUCCGACAUGAGGAUCACCCAUGUUAUCUGAAAUAACGCUGCAUGAAAGUGCGCUCGUCUUAG [Sensor-V1 #9] (Eterna round: R97, puzzle: Sensor, turn-off variant 1)",–,–,–,65.3 nM,73.9 nM,–
